Data as given in US20140086829A1 (BIOREC S A, published 2014).
Positions count from the first letter of the chain named.

T1: mouse VEGF (Peprotech) (mouse, UniProt Q00731-2 27-190, limits assumed)
T1 construct: also called Mouse VEGF-A
T1 sequence (looked up): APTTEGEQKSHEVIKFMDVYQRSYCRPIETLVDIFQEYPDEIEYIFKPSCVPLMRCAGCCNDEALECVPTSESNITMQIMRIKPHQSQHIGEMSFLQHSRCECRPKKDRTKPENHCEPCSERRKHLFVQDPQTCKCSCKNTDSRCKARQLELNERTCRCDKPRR

T2: isoform 121 of human VEGF-A (Peprotech) (human, UniProt P15692-9 27-147)
T2 construct: also called human VEGF121; VEGF 121
T2 sequence (looked up): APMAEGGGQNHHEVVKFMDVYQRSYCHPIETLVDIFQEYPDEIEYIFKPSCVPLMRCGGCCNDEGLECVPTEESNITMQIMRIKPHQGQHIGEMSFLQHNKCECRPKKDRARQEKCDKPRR

T3: human GST-VEGF (human, UniProt P15692-9 27-147)
T3 construct: also called GST-VEGF humano; not shown: GST fusion partner
T3 sequence (looked up): T2 sequence (looked up)

B1: Fab 2H1-32 (Fab, V domains shown)
VH: QVQLVQSGAEVKKPGESLKISCKGSGYSFTSYWIGWVRQMPGKGLEWMGIIYPGDSDTRYSPSFQGQVTISADKSISTAYLQWSSLKASDTAMYYCARLVVRDTEIWGQGTMVTVSS
VL: QAVVTQEPSLTVSPGGTVTLTCASSIGAVTSGNYPNWFQQRPGQPPRALIYSTSNKHSWTPARFSGSLLGGKAALTLSGAQPEDEAEYYCLLSYSGARPVFGGGTKLTVLG
B2: Fab L3H6 (Fab, V domains shown)
VH: B1 VH with L99Q, V100G, V101T, R102H, D103N, T104R, E105K
VL: B1 VL with I26T, L91R, S95D, G96L
notes: The entries are the mature chains without the six histidines and c-myc that the heavy chain carried at its C-terminus in the assay
B3: Fab L3H5 (Fab, V domains shown)
VH: B1 VH with V101H, D103Y, T104R, E105A
VL: B1 VL with I26T, L91R, S95D, G96L
notes: Entries lack the six histidines and c-myc of the heavy chain
B4: Fab L3H7 (Fab, V domains shown)
VH: B1 VH with L99P, V100Y, V101A, R102T, E105R
VL: B1 VL with I26T, L91R, S95D, G96L
notes: as for B3
B5: scFv L3H6 antibody fragment (scFv)
scFv: QQVQLVQSGAEVKKPGESLKISCKGSGYSFTSYWIGWVRQMPGKGLEWMGIIYPGDSDTRYSPSFQGQVTISADKSISTAYLQWSSLKASDTAMYYCARQGTHNRKIWGQGTMVTVSSAPQAKSSGSGSESKVDQAVVTQEPSLTVSPGGTVTLTCASSTGAVTSGNYPNWFQQRPGQPPRALIYSTSNKHSWTPARFSGSLLGGKAALTLSGAQPEDEAEYYCRLSYDLARPVFGGGTKLTVLG
notes: soluble, from E. coli
B6: scFv L3H7 antibody fragment (scFv)
scFv: B5 scFv with Q100P, G101Y, T102A, H103T, N104D, R105T, K106R
notes: soluble, from E. coli
B7: scFv L3H5 antibody fragment (scFv)
scFv: B5 scFv with Q100L, G101V, T102H, H103R, N104Y, K106A
notes: soluble, from E. coli
B8: phage displayed scFv clone 3F3 (scFv)
scFv: B5 scFv with R225L, D229S, L230G
modifications: Displayed on M13 phage as a protein III fusion; the phage part is not in the letters.
notes: also called VH H6
B9: phage displayed scFv clone 4D8 (scFv)
scFv: B5 scFv with Q100P, G101Y, T102A, H103T, N104D, R105T, K106R, R225L, D229S, L230G
modifications: Displayed on M13 phage as a protein III fusion; the phage part is not in the letters.
notes: also called VH H7

Biological target: P64K-VEGFKDR- (human) (UniProt P15692)
Test: ELISA; antigen coated 1 µg/ml; Fab 10 µg/mL; 9E10-peroxidase

| Binder | absorbance at 492 nm |
| --- | --- |
| B1 | 0.704 |
| B2 | 2.6 |
| B3 | 2.51 |
| B4 | 2.42 |

Biological target: P64K-VEGFKDR- (human) (UniProt P15692)
Test: ELISA; antigen coated 1 µg/ml; scFv 10 µg/mL; 9E10-peroxidase

| Binder | absorbance at 492 nm |
| --- | --- |
| B5 | 2.77 |
| B6 | 2.47 |
| B7 | 2.61 |

Biological target: T4, isoform 165 of human VEGF-A (Peprotech) (human, UniProt P15692-4 27-191)
T4 construct: also called human VEGF165; VEGF 165
Test: ELISA; antigen coated 1 µg/ml; Fab 10 µg/mL; 9E10-peroxidase
Target sequence in this assay (P15692 other isoform, or with tags, fused parts or gaps limits assumed): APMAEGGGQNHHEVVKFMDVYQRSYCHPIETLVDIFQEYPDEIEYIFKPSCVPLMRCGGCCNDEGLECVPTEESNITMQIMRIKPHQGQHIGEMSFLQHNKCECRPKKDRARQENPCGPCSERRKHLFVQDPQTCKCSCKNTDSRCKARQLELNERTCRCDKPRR
Experimental: (§1) After blocking the plates with PBS-skimmed milk 4%, the Fab antibody fragments diluted in PBS-skimmed milk 4% were added at a 10 μg/mL concentration, and incubated for 1 h at 22° C. After several washes, 9E10 monoclonal antibody conjugated to peroxidase was added for 1 hour. After washing, the fragments bound to the solid phase were detected by the addition of substrate solution. The absorbance was read at 492 nm in a microplate reader.

| Binder | absorbance at 492 nm |
| --- | --- |
| B1 | 0.601 |
| B2 | 2.46 |
| B3 | 2.35 |
| B4 | 2.2 |

Biological target: T1, mouse VEGF (Peprotech)
Test: as above
Experimental: as §1

| Binder | absorbance at 492 nm |
| --- | --- |
| B1 | 0.091 |
| B2 | 1.19 |
| B3 | 1.09 |
| B4 | 1.1 |

Biological target: T2, isoform 121 of human VEGF-A (Peprotech)
Test: as above
Experimental: as §1

| Binder | absorbance at 492 nm |
| --- | --- |
| B1 | 0.589 |
| B2 | 2.56 |
| B3 | 2.25 |
| B4 | 2.22 |

Biological target: T4, isoform 165 of human VEGF-A (Peprotech)
Test: SPR, BIAcore-X
Experimental: (§2) A CM5 sensor chip was activated via the covalent binding of human VEGF using N-Ethyl-N′-(3-dimethylaminopropyl)carbodihimide hydrochloride (EDC) and N-hydroxysuccinimide (NHS), according to the manufacturer's instructions.
(§3) The kinetic parameters and the equilibrium dissociation constants (KD) were calculated using the BIA Evaluation 3.2 software. The binding data were globally adjusted to a Langmuir 1:1 binding model.

| Binder | fold affinity against scFv 2H1 |
| --- | --- |
| B5 | 5 to 20 fold |
| B6 | 5 to 20 fold |

Biological target: T4, isoform 165 of human VEGF-A (Peprotech)
Test: ELISA; antigen coated 1 µg/ml; scFv 10 µg/mL; 9E10-peroxidase
Target sequence in this assay (P15692 other isoform, or with tags, fused parts or gaps limits assumed): as above
Experimental: (§4) After several washes, 9E10 monoclonal antibody conjugated to peroxidase was added for 1 hour. After washing, the fragments bound to the solid phase were detected by the addition of substrate solution. The absorbance was read at 492 nm in a microplate reader.

| Binder | absorbance at 492 nm |
| --- | --- |
| B5 | 2.89 |
| B6 | 2.51 |
| B7 | 2.8 |

Biological target: T1, mouse VEGF (Peprotech)
Test: as above
Experimental: as §4

| Binder | absorbance at 492 nm |
| --- | --- |
| B5 | 1.43 |
| B6 | 1.12 |
| B7 | 1.39 |

Biological target: T2, isoform 121 of human VEGF-A (Peprotech)
Test: as above
Experimental: as §4

| Binder | absorbance at 492 nm |
| --- | --- |
| B5 | 2.84 |
| B6 | 2.54 |
| B7 | 2.78 |

Biological target: T3, human GST-VEGF
Test: competition ELISA on coated GST-VEGF with soluble scFv 2H1
Experimental: For this, Maxisorp 96-well plates (Nunc) were coated with 10 μg/mL GST-VEGF, followed by blocking with PBS-4% skimmed milk. […] After several washes with PBS-0.1% Tween 20, VEGF-bound phages were detected using an anti-M13 antibody, conjugated to peroxidase (Amersham-Pharmacia) for 1 hour at 22° C. Following several washes, the reactions were developed with substrate solution. Absorbance was read at 492 nm in a microplate reader. […] This value is a relative indicator of the affinity of the different clones for the antigen. Higher IC50 values correspond with higher affinity.

| Binder | fold IC50 (relative affinity) against the original phage displayed scFv 2H1 |
| --- | --- |
| B8 | 6 to 10 fold |
| B9 | 6 to 10 fold |

Biological target: T4, isoform 165 of human VEGF-A (Peprotech)
Test: SPR, BIAcore-X; VEGF 165 coupled to CM5 chip; scFv injected; Langmuir 1:1
Target sequence in this assay (P15692 other isoform, or with tags, fused parts or gaps limits assumed): as above
Experimental: as §2, §3

| Binder | Kd |
| --- | --- |
| B5 | 26.1 nM |
| B6 | 87.3 nM |
| B7 | 42.1 nM |

Biological target: T2, isoform 121 of human VEGF-A (Peprotech)
Test: competition ELISA: human VEGF-A isoform 121 coated, scFv varied, blocked ligand soluble KDR-Fc (VEGFR2) at 0.5 ug/mL, bound KDR-Fc detected with anti-human IgG-HRPO, absorbance 492 nm
Text: Detection of bound soluble receptors was made using anti human IgG antibodies conjugated with HRPO.

| Binder | IC50 (read off the curve) |
| --- | --- |
| B5 | ~8 µg/mL |
| B6 | ~10 µg/mL |
| B7 | ~9 µg/mL |
